The record followed here is patent US20210388087A1 (Chugai, published 2021).

The labels stand for the following.
B1: CE115HA000 G100bL one-arm antibody (antibody, human IgG1, kappa, L234A L235A, N297A, name in Kabat numbering)
heavy: QVQLVESGGGVVQPGRSLRLSCAASGFTFSNAWMHWVRQAPGKGLEWVAQIKAKSNNYATYYAESVKGRFTISRDDSKNSLYLQMNSLKTEDTAVYYCRYVHYGAYYLVDAWGQGTTVTVSSASTKGPSVFPLAPSSKSTSGGTAALGCLVKDYFPEPVTVSWNSGALTSGVHTFPAVLQSSGLYSLSSVVTVPSSSLGTQTYICNVNHKPSNTKVDKKVEPKSCDKTHTCPPCPAPEAAGGPSVFLFPPKPKDTLMISRTPEVTCVVVDVSHEDPEVKFNWYVDGVEVHNAKTKPREEQYASTYRVVSVLTVLHQDWLNGKEYKCKVSNKALPAPIEKTISKAKGQPREPQVYTLPPSRCELTKNQVSLSCAVKGFYPSDIAVEWESNGQPENNYKTTPPVLDSDGSFFLVSKLTVDKSRWQQGNVFSCSVMHEALHNHYTQKSLSLSPDYKDDDDK
chain: EPKSSDKTHTCPPCPAPELLGGPSVFLFPPKPKDTLMISRTPEVTCVVVDVSHEDPEVKFNWYVDGVEVHNAKTKPREEQYNSTYRVVSVLTVLHQDWLNGKEYKCKVSNKALPAPIEKTISKAKGQPREPQVCTLPPSRDELTKNQVSLWCLVKGFYPSDIAVEWESNGQPENNYKTTPPVLDSDGSFFLYSKLTVDKSRWQQGNVFSCSVMHEALHNRYTQKSLSLSP
light: DIVMTQSPLSLPVTPGEPASISCRSSQSLVHSNRNTYLHWYQQKPGQAPRLLIYKVSNRFSGVPDRFSGSGSGTDFTLKISRVEAEDVGVYYCGQGTQVPYTFGQGTKLEIKRTVAAPSVFIFPPSDEQLKSGTASVVCLLNNFYPREAKVQWKVDNALQSGNSQESVTEQDSKDSTYSLSSTLTLSKADYEKHKVYACEVTHQGLSSPVTKSFNRGEC
B2: CE115HA000 H35Y one-arm antibody (antibody, human IgG1, kappa, L234A L235A, N297A, name in Kabat numbering)
heavy: B1 heavy with H35Y, L108G
chain: B1 chain
light: B1 light
B3: CE115HA000 H96S one-arm antibody (antibody, human IgG1, kappa, L234A L235A, N297A, name in Kabat numbering)
heavy: B1 heavy with H102S, L108G
chain: B1 chain
light: B1 light
B4: CE115HA000 H96R one-arm antibody (antibody, human IgG1, kappa, L234A L235A, N297A, name in Kabat numbering)
heavy: B1 heavy with H102R, L108G
chain: B1 chain
light: B1 light
B5: CE115HA000 H96Y one-arm antibody (antibody, human IgG1, kappa, L234A L235A, N297A, name in Kabat numbering)
heavy: B1 heavy with H102Y, L108G
chain: B1 chain
light: B1 light
B6: CE115HA000 K43E one-arm antibody (antibody, human IgG1, kappa, L234A L235A, N297A, name in Kabat numbering)
heavy: B1 heavy with K43E, L108G
chain: B1 chain
light: B1 light
B7: CE115HA000 H35I one-arm antibody (antibody, human IgG1, kappa, L234A L235A, N297A, name in Kabat numbering)
heavy: B1 heavy with H35I, L108G
chain: B1 chain
light: B1 light
B8: CE115HA000 H35G one-arm antibody (antibody, human IgG1, kappa, L234A L235A, N297A, name in Kabat numbering)
heavy: B1 heavy with H35G, L108G
chain: B1 chain
light: B1 light
B9: CE115HA000 H35K one-arm antibody (antibody, human IgG1, kappa, L234A L235A, N297A, name in Kabat numbering)
heavy: B1 heavy with H35K, L108G
chain: B1 chain
light: B1 light
B10: CE115HA000 I51D one-arm antibody (antibody, human IgG1, kappa, L234A L235A, N297A, name in Kabat numbering)
heavy: B1 heavy with I51D, L108G
chain: B1 chain
light: B1 light
B11: CE115HA000 K43Q one-arm antibody (antibody, human IgG1, kappa, L234A L235A, N297A, name in Kabat numbering)
heavy: B1 heavy with K43Q, L108G
chain: B1 chain
light: B1 light
B12: CE115HA000 H96L one-arm antibody (antibody, human IgG1, kappa, L234A L235A, N297A, name in Kabat numbering)
heavy: B1 heavy with H102L, L108G
chain: B1 chain
light: B1 light
B13: CE115HA000 H96K one-arm antibody (antibody, human IgG1, kappa, L234A L235A, N297A, name in Kabat numbering)
heavy: B1 heavy with H102K, L108G
chain: B1 chain
light: B1 light
B14: CE115HA000 H35N one-arm antibody (antibody, human IgG1, kappa, L234A L235A, N297A, name in Kabat numbering)
heavy: B1 heavy with H35N, L108G
chain: B1 chain
light: B1 light
B15: CE115HA000 I51E one-arm antibody (antibody, human IgG1, kappa, L234A L235A, N297A, name in Kabat numbering)
heavy: B1 heavy with I51E, L108G
chain: B1 chain
light: B1 light
B16: CE115HA000 G100bY one-arm antibody (antibody, human IgG1, kappa, L234A L235A, N297A, name in Kabat numbering)
heavy: B1 heavy with L108Y
chain: B1 chain
light: B1 light
B17: CE115HA000 H35E one-arm antibody (antibody, human IgG1, kappa, L234A L235A, N297A, name in Kabat numbering)
heavy: B1 heavy with H35E, L108G
chain: B1 chain
light: B1 light
B18: CE115HA000 H35L one-arm antibody (antibody, human IgG1, kappa, L234A L235A, N297A, name in Kabat numbering)
heavy: B1 heavy with H35L, L108G
chain: B1 chain
light: B1 light
B19: CE115HA000 G100bS one-arm antibody (antibody, human IgG1, kappa, L234A L235A, N297A, name in Kabat numbering)
heavy: B1 heavy with L108S
chain: B1 chain
light: B1 light
B20: CE115HA000 H35T one-arm antibody (antibody, human IgG1, kappa, L234A L235A, N297A, name in Kabat numbering)
heavy: B1 heavy with H35T, L108G
chain: B1 chain
light: B1 light
B21: CE115HA000 H35D one-arm antibody (antibody, human IgG1, kappa, L234A L235A, N297A, name in Kabat numbering)
heavy: B1 heavy with H35D, L108G
chain: B1 chain
light: B1 light
B22: CE115HA000 H35M one-arm antibody (antibody, human IgG1, kappa, L234A L235A, N297A, name in Kabat numbering)
heavy: B1 heavy with H35M, L108G
chain: B1 chain
light: B1 light
B23: CE115HA000 H35W one-arm antibody (antibody, human IgG1, kappa, L234A L235A, N297A, name in Kabat numbering)
heavy: B1 heavy with H35W, L108G
chain: B1 chain
light: B1 light
B24: CE115HA000 H35F one-arm antibody (antibody, human IgG1, kappa, L234A L235A, N297A, name in Kabat numbering)
heavy: B1 heavy with H35F, L108G
chain: B1 chain
light: B1 light
B25: CE115HA000 H96P one-arm antibody (antibody, human IgG1, kappa, L234A L235A, N297A, name in Kabat numbering)
heavy: B1 heavy with H102P, L108G
chain: B1 chain
light: B1 light
B26: CE115HA000 H35Q one-arm antibody (antibody, human IgG1, kappa, L234A L235A, N297A, name in Kabat numbering)
heavy: B1 heavy with H35Q, L108G
chain: B1 chain
light: B1 light
B27: CE115HA000 H35V one-arm antibody (antibody, human IgG1, kappa, L234A L235A, N297A, name in Kabat numbering)
heavy: B1 heavy with H35V, L108G
chain: B1 chain
light: B1 light
B28: CE115HA000 H96G one-arm antibody (antibody, human IgG1, kappa, L234A L235A, N297A, name in Kabat numbering)
heavy: B1 heavy with H102G, L108G
chain: B1 chain
light: B1 light
B29: CE115HA000 H96Q one-arm antibody (antibody, human IgG1, kappa, L234A L235A, N297A, name in Kabat numbering)
heavy: B1 heavy with H102Q, L108G
chain: B1 chain
light: B1 light
B30: CE115HA000 H35R one-arm antibody (antibody, human IgG1, kappa, L234A L235A, N297A, name in Kabat numbering)
heavy: B1 heavy with H35R, L108G
chain: B1 chain
light: B1 light
B31: CE115HA000 H35S one-arm antibody (antibody, human IgG1, kappa, L234A L235A, N297A, name in Kabat numbering)
heavy: B1 heavy with H35S, L108G
chain: B1 chain
light: B1 light

Positions count from the first letter of the chain named. Numbers in names are those of the source.

The assay deals with T1, CD3 epsilon homodimer protein (UniProt P07766 23-126).
T1 construct: immobilized on Sensor chip CM4 by amine coupling; also called CD3 (CD3 epsilon)
T1 sequence (P07766 23-126): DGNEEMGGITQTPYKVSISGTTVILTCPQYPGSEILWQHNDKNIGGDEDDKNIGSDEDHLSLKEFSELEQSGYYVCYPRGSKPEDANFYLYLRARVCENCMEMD
Briefly: SPR (Biacore T200), CD3 epsilon homodimer on CM4 chip, one-arm antibody as analyte, 25 C.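 Note: homodimer attached to the sensor surface via amine coupling, HBS-EP+ used as running buffer during binding runs.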
Experimental: An appropriate amount of CD3 epsilon homodimer protein was immobilized onto Sensor chip CM4 (GE Healthcare Japan Corp.) by the amine coupling method. Then, the antibody having an appropriate concentration was injected thereto as an analyte and allowed to interact with the CD3 epsilon homodimer protein on the sensor chip. Then, the sensor chip was regenerated by the injection of 10 mmol/L glycine-HCl (pH 1.5). The assay was conducted at 25 degrees C., and HBS-EP+(GE Healthcare Japan Corp.) was used as a running buffer. […] Each parameter was calculated using Biacore T200 Evaluation Software (GE Healthcare Japan Corp.).
B1: the “ratio of amounts bound (altered form / CE115HA000)” value stood at 0.27.

Take B2: the “ratio of amounts bound (altered form / CE115HA000)” value turned out to be 0.16.

As for B3, the “ratio of amounts bound (altered form / CE115HA000)” value was found to be 0.44.

With B4, the “ratio of amounts bound (altered form / CE115HA000)” value came to 0.46.

Turning to B5, the “ratio of amounts bound (altered form / CE115HA000)” value came out at 0.17.

On to B6, for which the “ratio of amounts bound (altered form / CE115HA000)” value worked out at 0.9.

For the molecule B7, the “ratio of amounts bound (altered form / CE115HA000)” value is 0.12.

Regarding B8, the “ratio of amounts bound (altered form / CE115HA000)” value was 0.22.

Consider B9, for which the “ratio of amounts bound (altered form / CE115HA000)” value stood at 0.15.

Turning to B10, the “ratio of amounts bound (altered form / CE115HA000)” value was determined as 0.29.

As to B11, the “ratio of amounts bound (altered form / CE115HA000)” value was 0.99.

Regarding B12, the “ratio of amounts bound (altered form / CE115HA000)” value came out at 0.14.

As to B13, the “ratio of amounts bound (altered form / CE115HA000)” value came out at 0.38.

Regarding B14, the “ratio of amounts bound (altered form / CE115HA000)” value was 0.35.

For B15, the “ratio of amounts bound (altered form / CE115HA000)” value amounted to 0.55.

Take B16: the “ratio of amounts bound (altered form / CE115HA000)” value was 0.23.

For B17, the “ratio of amounts bound (altered form / CE115HA000)” value was found to be 0.19.

Take B18: the “ratio of amounts bound (altered form / CE115HA000)” value turned out to be 0.11.

Turning to B19, the “ratio of amounts bound (altered form / CE115HA000)” value came out at 0.52.

Regarding B20, the “ratio of amounts bound (altered form / CE115HA000)” value was determined as 0.26.

For the molecule B21, the “ratio of amounts bound (altered form / CE115HA000)” value was 0.2.

Take B22: the “ratio of amounts bound (altered form / CE115HA000)” value turned out to be 0.29.

Regarding B23, the “ratio of amounts bound (altered form / CE115HA000)” value was 0.22.

With B24, the “ratio of amounts bound (altered form / CE115HA000)” value stood at 0.21.

For the molecule B25, the “ratio of amounts bound (altered form / CE115HA000)” value amounted to 0.12.

On to B26, for which the “ratio of amounts bound (altered form / CE115HA000)” value was 0.13.

With B27, the “ratio of amounts bound (altered form / CE115HA000)” value was 0.22.

Turning to B28, the “ratio of amounts bound (altered form / CE115HA000)” value stood at 0.43.

Take B29: the “ratio of amounts bound (altered form / CE115HA000)” value came out at 0.42.

Take B30: the “ratio of amounts bound (altered form / CE115HA000)” value was found to be 0.14.

Take B31: the “ratio of amounts bound (altered form / CE115HA000)” value turned out to be 0.23.
